In US10251952B2, “Humanized anti-tau(pS422) antibody brain shuttles and use thereof” (Hoffmann-La Roche Inc., priority 2014, dated 2019):

Biological target: human tau(pS422) (Homo sapiens, UniProt P10636, S739X)
Assay: BIAcore kinetic screening and kinetic rates of humanized VH/VL combinations
Assay type: binding
Settings: 25 °C; VL17 or VL19 with VH variants
Method: In the following Table characteristics of the different humanized variants of the rabbit light chain variable domain in combination with the humanized heavy chain variable domains VH14 and VH20, respectively, are shown. Binding partner was human tau(pS422).
Kinetic screening was performed according to Schraeml et al. (Schraeml, M. and M. Biehl, Methods Mol. Biol. 901 (2012) 171-181) on a BIAcore 4000 instrument, mounted with a BIAcore CM5 sensor. The BIAcore 4000 instrument was under the control of the software version V1.1. A BIAcore CM5 series S chip was mounted into the instrument and was hydrodynamically addressed and preconditioned according to the manufacturer's instructions. The instrument buffer was HBS-EP buffer (10 mM HEPES (pH 7.4), 150 mM NaCl, 1 mM EDTA, 0.05% (w/v) P20). An antibody capture system was prepared on the sensor surface. A polyclonal goat anti-human antibody with human IgG-Fc specificity (Jackson Lab.) was immobilized at 30 μg/ml in 10 mM sodium acetate buffer (pH 5) to spots 1, 2, 4 and 5 in the instrument's flow cells 1, 2, 3 and 4 at 10,000 RU using NHS/EDC chemistry. In each flow cell the antibodies were captured on spot 1 and spot 5. Spot 2 and spot 4 were used as reference spots. The sensor was deactivated with a 1 M ethanolamine solution. Humanized antibody derivatives were applied at concentrations between 44 nM and 70 nM in instrument buffer supplemented with 1 mg/ml CMD (carboxymethyldextrane). The antibodies were injected at a flow rate of 30 μl/min for 2 minutes. The capture level (CL) of the surface-presented antibodies was measured in rel. response units (RU). The analytes in solution, phosphorylated human tau protein, non-phosphorylated human tau protein and the phosphorylated human tau mutant protein T422S were injected at 300 nM for 3 minutes at a flow rate of 30 μl/minute. The dissociation was monitored for 5 minutes. The capture system was regenerated by a 1 minute injection of 10 mM glycine buffer, pH 1.7 at 30 μL/minute over all flow cells. Two report points, the recorded signal shortly before the end of the analyte injection, denoted as binding late (BL) and the recorded signal shortly before the end of the dissociation time, stability late (SL), were used to characterize the kinetic screening performance. Furthermore, the dissociation rate constant kd (1/s) was calculated according to a Langmuir model and the antibody/antigen complex half-life was calculated in minutes according to the formula ln(2)/(60*kd). The molar ratio (MR) was calculated according to the formula MR=(Binding Late (RU))/(Capture level (RU))*(MW(antibody)/(MW(antigen)). In case the sensor was configured with a suitable amount of antibody ligand capture level, each antibody should be able to functionally bind at least to one analyte in solution, which is represented by a molar ratio of MR=1.0. Then, the molar ratio is also an indicator for the valence mode of analyte binding. The maximum valence can be MR=2 for an antibody binding two analytes, one with each Fab valence.
In another embodiment, kinetic rates were determined at 25° C. and 37° C. using the same experimental setup, but using multiple concentration series of each analyte in solution at 0 nM (buffer), 1.2 nM, 3.7 nM, 11.1 nM, 33.3 nM, 100 nM and 300 nM. From the concentration-dependent binding behavior the kinetic data was calculated using the BIAcore evaluation software according to the manufacturer's instructions and a Langmuir 1.1 model with RMAX global.

Molecule | kd [s⁻¹] | t/2 diss [min]
VL17 with VH22: anti-human tau(pS422) antibody; VH SEQ ID NO: 54, VL SEQ ID NO: 37 (antibody, V domains shown, humanized sequence) VH: EVQLLESGGGLVQPGGSLRLSCAASGFSLSSNAINWVRQAPGKGLEWVGYIAVSGNTYYADSVKGRFTISRDNSKNTLYLQMNSLRAEDTAVYYCGKSNIWGQGTLVTVSS VL: DIQMTQSPSSLSASVGDRVTITCRSSQSVRTNKLAWFQQKPGQPPKRLIYSASTLDFGVPSRFSGSGSGTEFTLTISSLQPEDFATYYCLGYFDCSIADCVAFGGGTKVEIK | 0.002 | 6
VL17 with VH00: anti-human tau(pS422) antibody; VH SEQ ID NO: 11, VL SEQ ID NO: 37 (antibody, listed as Oryctolagus cuniculus, V domains shown, humanized sequence) VH: QSVEESGGRLVTPGTPLTLTCTVSGFSLSSNAINWVRQAPGKGLEWIGYIAVSGNTYYASWAKGRFTISKASTTVDLKMTSPTAEDTGTYFCGKSNIWGPGTLVTVSL VL: DIQMTQSPSSLSASVGDRVTITCRSSQSVRTNKLAWFQQKPGQPPKRLIYSASTLDFGVPSRFSGSGSGTEFTLTISSLQPEDFATYYCLGYFDCSIADCVAFGGGTKVEIK | 0.000498 | 23
VL17 with VH23: anti-human tau(pS422) antibody; VH SEQ ID NO: 55, VL SEQ ID NO: 37 (antibody, V domains shown, humanized sequence) VH: EVQVLESGGGLVQPGGSLRLSCAVSGFSLSSNAINWVRQAPGKGLEWVGYIAVSGNTYYADSVKGRFTISKDNSKNTVYLQMNSLRAEDTAVYYCGKSNIWGQGTLVTVSS VL: DIQMTQSPSSLSASVGDRVTITCRSSQSVRTNKLAWFQQKPGQPPKRLIYSASTLDFGVPSRFSGSGSGTEFTLTISSLQPEDFATYYCLGYFDCSIADCVAFGGGTKVEIK | 0.0007 | 17
VL19 with VH01: anti-human tau(pS422) antibody; VH SEQ ID NO: 46, VL SEQ ID NO: 38 (antibody, V domains shown, humanized sequence) VH: QQLVESGGGLVQPGGSLRLSCAASGFSLSSNAINWVRQAPGKGLEWVGYIAVSGNTYYASWAKGRFTISRDNSKNTLYLQMNSLRAEDTAVYYCGKSNIWGQGTLVTVSS VL: AQVMTQSPSSLSASVGDRVTITCRSSQSVRTNKLAWFQQKPGQPPKRLIYSASTLDFGVPSRFSGSGSGTEFTLTISSLQPEDFATYYCLGYFDCSIADCVAFGGGTKVEIK | 0.0019 | 6
VL17 with VH24: anti-human tau(pS422) antibody; VH SEQ ID NO: 56, VL SEQ ID NO: 37 (antibody, V domains shown, humanized sequence) VH: EVQLLESGGGLVQPGGSLRLSCAASGFSLSSNAINWVRQAPGKGLEWVGYIAVSGNTYYADSVKGRFTISKDNSKNTVYLQMNSLRAEDTAVYYCGKSNIWGQGTLVTVSS VL: DIQMTQSPSSLSASVGDRVTITCRSSQSVRTNKLAWFQQKPGQPPKRLIYSASTLDFGVPSRFSGSGSGTEFTLTISSLQPEDFATYYCLGYFDCSIADCVAFGGGTKVEIK | 0.00079 | 15
VL17 with VH01: anti-human tau(pS422) antibody; VH SEQ ID NO: 46, VL SEQ ID NO: 37 (antibody, V domains shown, humanized sequence) VH: QQLVESGGGLVQPGGSLRLSCAASGFSLSSNAINWVRQAPGKGLEWVGYIAVSGNTYYASWAKGRFTISRDNSKNTLYLQMNSLRAEDTAVYYCGKSNIWGQGTLVTVSS VL: DIQMTQSPSSLSASVGDRVTITCRSSQSVRTNKLAWFQQKPGQPPKRLIYSASTLDFGVPSRFSGSGSGTEFTLTISSLQPEDFATYYCLGYFDCSIADCVAFGGGTKVEIK | 0.0023 | 5

The next lines start with the values.

kd [s⁻¹] | t/2 diss [min] | Molecule
0.0021 | 6 | VL19 with VH22: anti-human tau(pS422) antibody; VH SEQ ID NO: 54, VL SEQ ID NO: 38 (antibody, V domains shown, humanized sequence) VH: EVQLLESGGGLVQPGGSLRLSCAASGFSLSSNAINWVRQAPGKGLEWVGYIAVSGNTYYADSVKGRFTISRDNSKNTLYLQMNSLRAEDTAVYYCGKSNIWGQGTLVTVSS VL: AQVMTQSPSSLSASVGDRVTITCRSSQSVRTNKLAWFQQKPGQPPKRLIYSASTLDFGVPSRFSGSGSGTEFTLTISSLQPEDFATYYCLGYFDCSIADCVAFGGGTKVEIK
0.002 | 6 | VL19 with VH19: anti-human tau(pS422) antibody; VH SEQ ID NO: 53, VL SEQ ID NO: 38 (antibody, V domains shown, humanized sequence) VH: QQLVESGGGLVQPGGSLRLSCAASGFSLSSNAINWVRQAPGKGLEWVGYIAVSGNTYYADSVKGRFTISKDNSKNTLYLQMNSLRAEDTAVYYCGKSNIWGQGTLVTVSS VL: AQVMTQSPSSLSASVGDRVTITCRSSQSVRTNKLAWFQQKPGQPPKRLIYSASTLDFGVPSRFSGSGSGTEFTLTISSLQPEDFATYYCLGYFDCSIADCVAFGGGTKVEIK
0.0019 | 6 | VL19 with VH18: anti-human tau(pS422) antibody; VH SEQ ID NO: 52, VL SEQ ID NO: 38 (antibody, V domains shown, humanized sequence) VH: QQLVESGGGLVQPGGSLRLSCAASGFSLSSNAINWVRQAPGKGLEWVGYIAVSGNTYYADSVKGRFTISRDNSKNTLYLQMNSLRAEDTAVYYCGKSNIWGQGTLVTVSS VL: AQVMTQSPSSLSASVGDRVTITCRSSQSVRTNKLAWFQQKPGQPPKRLIYSASTLDFGVPSRFSGSGSGTEFTLTISSLQPEDFATYYCLGYFDCSIADCVAFGGGTKVEIK
0.00057 | 20 | VL19 with VH23: anti-human tau(pS422) antibody; VH SEQ ID NO: 55, VL SEQ ID NO: 38 (antibody, V domains shown, humanized sequence) VH: EVQVLESGGGLVQPGGSLRLSCAVSGFSLSSNAINWVRQAPGKGLEWVGYIAVSGNTYYADSVKGRFTISKDNSKNTVYLQMNSLRAEDTAVYYCGKSNIWGQGTLVTVSS VL: AQVMTQSPSSLSASVGDRVTITCRSSQSVRTNKLAWFQQKPGQPPKRLIYSASTLDFGVPSRFSGSGSGTEFTLTISSLQPEDFATYYCLGYFDCSIADCVAFGGGTKVEIK
0.00063 | 18 | VL19 with VH24: anti-human tau(pS422) antibody; VH SEQ ID NO: 56, VL SEQ ID NO: 38 (antibody, V domains shown, humanized sequence) VH: EVQLLESGGGLVQPGGSLRLSCAASGFSLSSNAINWVRQAPGKGLEWVGYIAVSGNTYYADSVKGRFTISKDNSKNTVYLQMNSLRAEDTAVYYCGKSNIWGQGTLVTVSS VL: AQVMTQSPSSLSASVGDRVTITCRSSQSVRTNKLAWFQQKPGQPPKRLIYSASTLDFGVPSRFSGSGSGTEFTLTISSLQPEDFATYYCLGYFDCSIADCVAFGGGTKVEIK
